Results reported in patent US20150344570A1 (published 2015).

B1: GpH7-B3 variant Y300_01G/GpL16-k0 (homodimerized antibody, Ho Ab) (antibody, human IgG1, kappa)
heavy: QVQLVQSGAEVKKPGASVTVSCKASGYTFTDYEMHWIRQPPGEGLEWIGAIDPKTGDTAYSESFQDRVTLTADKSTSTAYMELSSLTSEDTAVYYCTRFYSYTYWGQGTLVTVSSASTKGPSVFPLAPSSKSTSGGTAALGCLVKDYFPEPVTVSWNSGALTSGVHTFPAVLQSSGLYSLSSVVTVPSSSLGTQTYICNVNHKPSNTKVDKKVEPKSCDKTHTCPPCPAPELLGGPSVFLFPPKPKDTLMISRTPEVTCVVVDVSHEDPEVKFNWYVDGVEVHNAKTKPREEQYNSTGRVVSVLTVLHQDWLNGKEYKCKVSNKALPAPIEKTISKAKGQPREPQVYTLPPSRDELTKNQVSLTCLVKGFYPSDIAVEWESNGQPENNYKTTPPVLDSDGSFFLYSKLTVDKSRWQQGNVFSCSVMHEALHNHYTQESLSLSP
light: DIVMTQSPLSLPVTPGEPASISCQASESLVHSNRNTYLHWYLQKPGQSPQLLIYKVSNRFSGVPDRFSGSGSGTDFTLKISRVEAEDVGVYYCSQNTHVPPTFGQGTKVEIERTVAAPSVFIFPPSDEQLKSGTASVVCLLNNFYPREAKVQWKVDNALQSGNSQESVTEQDSKDSTYSLSSTLTLSKADYEKHKVYACEVTHQGLSSPVTKSFNRGEC
notes: Anti-glypican-3 IgG1 (G1d with K439E); same alteration in both H chains
B2: GpH7-B3 variant Y296_13S/GpL16-k0 (homodimerized antibody, Ho Ab) (antibody, human IgG1, kappa)
heavy: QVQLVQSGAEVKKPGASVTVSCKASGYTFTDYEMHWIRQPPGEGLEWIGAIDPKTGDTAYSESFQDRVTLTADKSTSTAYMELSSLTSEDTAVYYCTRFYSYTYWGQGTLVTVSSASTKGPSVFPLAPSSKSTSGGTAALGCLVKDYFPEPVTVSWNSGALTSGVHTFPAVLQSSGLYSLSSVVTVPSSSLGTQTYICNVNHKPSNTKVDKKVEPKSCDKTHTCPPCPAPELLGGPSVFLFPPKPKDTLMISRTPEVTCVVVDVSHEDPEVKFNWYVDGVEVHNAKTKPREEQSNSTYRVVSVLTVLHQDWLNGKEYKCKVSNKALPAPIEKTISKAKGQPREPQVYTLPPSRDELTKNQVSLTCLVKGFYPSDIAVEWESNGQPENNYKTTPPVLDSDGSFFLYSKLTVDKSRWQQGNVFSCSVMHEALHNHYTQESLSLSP
light: B1 light
notes: as for B1
B3: GpH7-B3 variant T335_16H/GpL16-k0 (homodimerized antibody, Ho Ab) (antibody, human IgG1, kappa)
heavy: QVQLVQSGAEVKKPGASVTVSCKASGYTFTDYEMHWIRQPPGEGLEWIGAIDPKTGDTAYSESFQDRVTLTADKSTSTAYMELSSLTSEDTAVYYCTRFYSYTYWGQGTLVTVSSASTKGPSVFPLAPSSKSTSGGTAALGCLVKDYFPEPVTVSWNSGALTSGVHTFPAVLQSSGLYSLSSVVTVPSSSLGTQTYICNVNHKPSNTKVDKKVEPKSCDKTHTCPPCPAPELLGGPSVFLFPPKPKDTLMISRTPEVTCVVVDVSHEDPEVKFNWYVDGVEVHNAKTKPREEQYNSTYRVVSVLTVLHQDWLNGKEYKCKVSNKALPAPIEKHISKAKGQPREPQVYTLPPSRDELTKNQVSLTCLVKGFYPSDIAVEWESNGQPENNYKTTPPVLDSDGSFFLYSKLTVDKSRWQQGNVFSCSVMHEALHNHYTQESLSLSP
light: B1 light
notes: as for B1
B4: GpH7-B3 variant Y296_14T/GpL16-k0 (homodimerized antibody, Ho Ab) (antibody, human IgG1, kappa)
heavy: not shown
light: B1 light
notes: as for B1
B5: GpH7-B3 variant T335_20W/GpL16-k0 (homodimerized antibody, Ho Ab) (antibody, human IgG1, kappa)
heavy: not shown
light: B1 light
notes: as for B1
B6: GpH7-B3 variant T335_18N/GpL16-k0 (homodimerized antibody, Ho Ab) (antibody, human IgG1, kappa)
heavy: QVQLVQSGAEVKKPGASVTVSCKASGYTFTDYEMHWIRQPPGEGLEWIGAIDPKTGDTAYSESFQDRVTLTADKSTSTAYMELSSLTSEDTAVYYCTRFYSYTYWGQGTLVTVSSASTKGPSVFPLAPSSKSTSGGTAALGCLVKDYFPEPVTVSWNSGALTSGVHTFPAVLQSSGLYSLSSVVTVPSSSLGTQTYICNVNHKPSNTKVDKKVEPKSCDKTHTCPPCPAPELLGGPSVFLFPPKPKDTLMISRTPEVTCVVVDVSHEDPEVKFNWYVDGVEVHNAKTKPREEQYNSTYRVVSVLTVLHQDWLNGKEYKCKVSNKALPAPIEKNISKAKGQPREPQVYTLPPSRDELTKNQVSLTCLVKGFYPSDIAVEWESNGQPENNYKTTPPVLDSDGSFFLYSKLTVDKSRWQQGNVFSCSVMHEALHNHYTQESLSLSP
light: B1 light
notes: as for B1
B7: GpH7-B3 variant Y296_18N/GpL16-k0 (homodimerized antibody, Ho Ab) (antibody, human IgG1, kappa)
heavy: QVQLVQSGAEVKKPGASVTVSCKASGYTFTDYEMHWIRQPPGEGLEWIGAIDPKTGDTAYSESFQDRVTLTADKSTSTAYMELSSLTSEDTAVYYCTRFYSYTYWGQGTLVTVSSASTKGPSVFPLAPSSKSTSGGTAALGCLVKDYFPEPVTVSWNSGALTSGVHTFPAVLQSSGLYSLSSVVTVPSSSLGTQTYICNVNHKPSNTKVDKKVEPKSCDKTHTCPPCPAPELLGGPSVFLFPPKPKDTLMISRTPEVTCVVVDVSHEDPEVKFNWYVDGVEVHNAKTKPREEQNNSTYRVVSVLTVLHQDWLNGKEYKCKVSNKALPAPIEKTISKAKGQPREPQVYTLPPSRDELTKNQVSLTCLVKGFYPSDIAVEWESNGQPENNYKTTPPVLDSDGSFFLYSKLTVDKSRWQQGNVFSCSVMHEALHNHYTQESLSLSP
light: B1 light
notes: as for B1
B8: GpH7-B3 variant Y296_06M/GpL16-k0 (homodimerized antibody, Ho Ab) (antibody, human IgG1, kappa)
heavy: not shown
light: B1 light
notes: as for B1
B9: GpH7-B3 variant T335_19Q/GpL16-k0 (homodimerized antibody, Ho Ab) (antibody, human IgG1, kappa)
heavy: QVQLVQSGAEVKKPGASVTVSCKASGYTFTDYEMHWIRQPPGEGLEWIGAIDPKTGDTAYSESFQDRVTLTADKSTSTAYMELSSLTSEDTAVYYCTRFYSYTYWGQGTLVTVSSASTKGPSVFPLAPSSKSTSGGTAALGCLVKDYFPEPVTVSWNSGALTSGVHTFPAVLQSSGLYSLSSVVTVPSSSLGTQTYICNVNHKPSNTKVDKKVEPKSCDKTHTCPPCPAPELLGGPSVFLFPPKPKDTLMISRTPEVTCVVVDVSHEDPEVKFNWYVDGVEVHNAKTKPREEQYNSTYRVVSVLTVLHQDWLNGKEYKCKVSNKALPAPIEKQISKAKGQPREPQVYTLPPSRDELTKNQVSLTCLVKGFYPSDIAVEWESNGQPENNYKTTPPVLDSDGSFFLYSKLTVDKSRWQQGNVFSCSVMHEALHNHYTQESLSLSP
light: B1 light
notes: as for B1
B10: GpH7-B3 variant Y296_11K/GpL16-k0 (homodimerized antibody, Ho Ab) (antibody, human IgG1, kappa)
heavy: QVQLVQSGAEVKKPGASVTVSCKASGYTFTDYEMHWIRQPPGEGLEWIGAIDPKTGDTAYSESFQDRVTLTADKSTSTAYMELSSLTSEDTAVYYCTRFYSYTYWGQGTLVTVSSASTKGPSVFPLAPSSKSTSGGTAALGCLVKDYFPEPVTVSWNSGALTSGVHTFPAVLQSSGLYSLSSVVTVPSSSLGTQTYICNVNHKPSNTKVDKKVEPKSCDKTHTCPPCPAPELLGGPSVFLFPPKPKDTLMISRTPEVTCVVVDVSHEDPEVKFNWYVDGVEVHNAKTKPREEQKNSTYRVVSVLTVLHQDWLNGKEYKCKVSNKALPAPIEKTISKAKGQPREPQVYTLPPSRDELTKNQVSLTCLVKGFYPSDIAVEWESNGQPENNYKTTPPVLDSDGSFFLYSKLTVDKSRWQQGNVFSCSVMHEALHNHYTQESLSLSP
light: B1 light
notes: as for B1
B11: GpH7-B3 variant Y296_12R/GpL16-k0 (homodimerized antibody, Ho Ab) (antibody, human IgG1, kappa)
heavy: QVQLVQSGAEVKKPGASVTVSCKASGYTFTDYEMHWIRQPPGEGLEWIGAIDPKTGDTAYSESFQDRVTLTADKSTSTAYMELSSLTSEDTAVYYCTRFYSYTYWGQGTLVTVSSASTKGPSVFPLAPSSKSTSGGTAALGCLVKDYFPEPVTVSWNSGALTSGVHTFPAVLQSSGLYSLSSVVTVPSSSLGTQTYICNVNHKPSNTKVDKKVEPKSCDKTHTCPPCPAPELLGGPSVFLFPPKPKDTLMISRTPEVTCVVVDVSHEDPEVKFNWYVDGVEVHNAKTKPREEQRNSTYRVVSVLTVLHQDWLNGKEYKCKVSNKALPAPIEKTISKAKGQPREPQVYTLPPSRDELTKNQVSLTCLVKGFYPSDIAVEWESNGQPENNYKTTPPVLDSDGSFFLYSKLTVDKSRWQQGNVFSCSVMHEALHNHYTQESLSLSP
light: B1 light
notes: as for B1
B12: GpH7-B3 variant Y296_16H/GpL16-k0 (homodimerized antibody, Ho Ab) (antibody, human IgG1, kappa)
heavy: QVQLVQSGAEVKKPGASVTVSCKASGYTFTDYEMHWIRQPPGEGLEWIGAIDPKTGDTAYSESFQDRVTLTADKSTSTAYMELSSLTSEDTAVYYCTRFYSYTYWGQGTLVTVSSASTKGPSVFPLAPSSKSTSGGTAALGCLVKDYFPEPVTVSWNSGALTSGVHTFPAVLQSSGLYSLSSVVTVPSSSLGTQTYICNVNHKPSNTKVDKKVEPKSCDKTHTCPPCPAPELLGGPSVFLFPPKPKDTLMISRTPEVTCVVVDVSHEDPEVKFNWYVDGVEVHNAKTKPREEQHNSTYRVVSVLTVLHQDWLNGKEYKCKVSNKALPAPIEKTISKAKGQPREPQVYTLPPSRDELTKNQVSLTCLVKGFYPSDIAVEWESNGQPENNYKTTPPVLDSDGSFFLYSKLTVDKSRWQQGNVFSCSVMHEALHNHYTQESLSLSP
light: B1 light
notes: as for B1
B13: GpH7-B3 variant Y296_10E/GpL16-k0 (homodimerized antibody, Ho Ab) (antibody, human IgG1, kappa)
heavy: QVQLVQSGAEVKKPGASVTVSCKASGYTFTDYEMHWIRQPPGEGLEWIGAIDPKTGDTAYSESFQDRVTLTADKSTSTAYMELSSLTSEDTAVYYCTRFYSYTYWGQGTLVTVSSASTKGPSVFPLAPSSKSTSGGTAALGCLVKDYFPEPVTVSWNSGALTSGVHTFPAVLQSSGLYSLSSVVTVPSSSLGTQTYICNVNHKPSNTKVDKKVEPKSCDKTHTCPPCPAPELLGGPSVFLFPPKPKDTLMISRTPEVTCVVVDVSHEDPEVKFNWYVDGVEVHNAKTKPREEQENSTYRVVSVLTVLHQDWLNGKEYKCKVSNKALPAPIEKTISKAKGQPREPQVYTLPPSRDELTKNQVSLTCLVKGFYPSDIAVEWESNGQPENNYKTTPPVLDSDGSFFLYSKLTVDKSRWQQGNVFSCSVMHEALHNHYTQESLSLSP
light: B1 light
notes: as for B1
B14: GpH7-A5/GpH7-B3 variant G237_08L/GpL16-k0 (antibody, human IgG1, kappa)
heavy 1: not shown
heavy 2: not shown
light: B1 light
notes: Heterodimerized anti-glypican-3 IgG1; alteration in the GpH7-B3 chain only; also called He Ab
B15: GpH7-A5/GpH7-B3 variant S239_10E/GpL16-k0 (antibody, human IgG1, kappa)
heavy 1: not shown
heavy 2: not shown
light: B1 light
notes: as for B14
B16: GpH7-A5/GpH7-B3 variant P238_09D/GpL16-k0 (antibody, human IgG1, kappa)
heavy 1: not shown
heavy 2: not shown
light: B1 light
notes: as for B14
B17: GpH7-A5/GpH7-B3 variant G237_19Q/GpL16-k0 (antibody, human IgG1, kappa)
heavy 1: not shown
heavy 2: not shown
light: B1 light
notes: as for B14
B18: GpH7-A5/GpH7-B3 variant G237_09D/GpL16-k0 (antibody, human IgG1, kappa)
heavy 1: not shown
heavy 2: not shown
light: B1 light
notes: as for B14
B19: GpH7-A5/GpH7-B3 variant P238_15Y/GpL16-k0 (antibody, human IgG1, kappa)
heavy 1: not shown
heavy 2: not shown
light: B1 light
notes: as for B14
B20: GpH7-A5/GpH7-B3 variant G237_20W/GpL16-k0 (antibody, human IgG1, kappa)
heavy 1: not shown
heavy 2: not shown
light: B1 light
notes: as for B14
B21: GpH7-A5/GpH7-B3 variant P238_10E/GpL16-k0 (antibody, human IgG1, kappa)
heavy 1: not shown
heavy 2: not shown
light: B1 light
notes: as for B14
B22: GpH7-A5/GpH7-B3 variant L234_09D/GpL16-k0 (antibody, human IgG1, kappa)
heavy 1: not shown
heavy 2: not shown
light: B1 light
notes: as for B14
B23: GpH7-A5/GpH7-B3 variant V266_06M/GpL16-k0 (antibody, human IgG1, kappa)
heavy 1: not shown
heavy 2: not shown
light: B1 light
notes: as for B14
B24: GpH7-A5/GpH7-B3 variant S239_09D/GpL16-k0 (antibody, human IgG1, kappa)
heavy 1: not shown
heavy 2: not shown
light: B1 light
notes: as for B14
B25: GpH7-A5/GpH7-B3 variant P238_04F/GpL16-k0 (antibody, human IgG1, kappa)
heavy 1: not shown
heavy 2: not shown
light: B1 light
notes: as for B14
B26: GpH7-A5/GpH7-B3 variant L235_20W/GpL16-k0 (antibody, human IgG1, kappa)
heavy 1: not shown
heavy 2: not shown
light: B1 light
notes: as for B14
B27: GpH7-A5/GpH7-B3 variant P238_08L/GpL16-k0 (antibody, human IgG1, kappa)
heavy 1: not shown
heavy 2: not shown
light: B1 light
notes: as for B14
B28: GpH7-A5/GpH7-B3 variant L235_15Y/GpL16-k0 (antibody, human IgG1, kappa)
heavy 1: not shown
heavy 2: not shown
light: B1 light
notes: as for B14
B29: GpH7-A5/GpH7-B3 variant L235_09D/GpL16-k0 (antibody, human IgG1, kappa)
heavy 1: not shown
heavy 2: not shown
light: B1 light
notes: as for B14
B30: GpH7-A5/GpH7-B3 variant G237_10E/GpL16-k0 (antibody, human IgG1, kappa)
heavy 1: not shown
heavy 2: not shown
light: B1 light
notes: as for B14
B31: GpH7-A5/GpH7-B3 variant P238_06M/GpL16-k0 (antibody, human IgG1, kappa)
heavy 1: not shown
heavy 2: not shown
light: B1 light
notes: as for B14
B32: GpH7-A5/GpH7-B3 variant S239_08L/GpL16-k0 (antibody, human IgG1, kappa)
heavy 1: not shown
heavy 2: not shown
light: B1 light
notes: as for B14
B33: GpH7-A5/GpH7-B3 variant S239_01G/GpL16-k0 (antibody, human IgG1, kappa)
heavy 1: not shown
heavy 2: not shown
light: B1 light
notes: as for B14
B34: GpH7-A5/GpH7-B3 variant G237_15Y/GpL16-k0 (antibody, human IgG1, kappa)
heavy 1: not shown
heavy 2: not shown
light: B1 light
notes: as for B14
B35: GpH7-A5/GpH7-B3 variant G237_18N/GpL16-k0 (antibody, human IgG1, kappa)
heavy 1: not shown
heavy 2: not shown
light: B1 light
notes: as for B14

Each binder was assayed against T1, FcγRIa (human, UniProt P12314 16-292) (assay: SPR (Biacore), antibody captured on antigen-peptide chip, FcγRIa as analyte; binding activity relative to control GpH7-B3/GpL16-k0 (HoCon Ab) x100).
T1 construct: extracellular domain; Soluble extracellular domain with C-terminal His tag, expressed in FreeStyle293 cells; analyte in Biacore; also called FcgRI; CD64; not shown: His tag attached to the C terminus
Protocol: (§1) Analysis of interaction between objective antibody and the FcγR was carried out using Biacore T100 (GE Healthcare). HBS-EP+ (GE Healthcare) was used as the running buffer, and the measurement temperature was set to 25° C. Chips produced by immobilizing the antigen peptide by the amine coupling method to a Series S Sencor Chip CM5 (GE Healthcare), or alternatively, chips produced by allowing preliminarily biotinylated antigen peptides to interact with and immobilize onto a Series S Sensor Chip SA (certified) (GE Healthcare) were used. Antibodies of interest were captured onto an antigen peptide-immobilized chip, and allowed to interact to each FcγR diluted with running buffer. To regenerate and repeatedly use the chip, the antibodies captured on the chip were washed off by reacting 10 mM glycine-HCl, pH 1.5.
T1 sequence (P12314 16-292): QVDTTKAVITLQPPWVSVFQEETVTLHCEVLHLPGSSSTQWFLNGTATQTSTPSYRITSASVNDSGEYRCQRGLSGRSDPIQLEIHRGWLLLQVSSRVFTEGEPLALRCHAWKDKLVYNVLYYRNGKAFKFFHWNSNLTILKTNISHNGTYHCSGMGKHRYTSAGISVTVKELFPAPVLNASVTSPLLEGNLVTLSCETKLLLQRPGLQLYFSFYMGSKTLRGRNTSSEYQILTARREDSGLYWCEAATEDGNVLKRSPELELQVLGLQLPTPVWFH

| Binder | Ho/Con_1a |
| --- | --- |
| B1 | 109 % of control (=100) |
| B2 | 105 % of control (=100) |
| B3 | 104 % of control (=100) |
| B4 | 105 % of control (=100) |
| B5 | 104 % of control (=100) |
| B6 | 102 % of control (=100) |
| B7 | 105 % of control (=100) |
| B8 | 104 % of control (=100) |
| B9 | 105 % of control (=100) |
| B10 | 102 % of control (=100) |
| B11 | 103 % of control (=100) |
| B12 | 105 % of control (=100) |
| B13 | 106 % of control (=100) |

These binders were tested against T2, FcγRIa (human, UniProt P12314 16-292) (assay: SPR (Biacore); He/Con_1a divided by He/Con_2b (binding to FcγRIa against binding to FcγRIIb)).
T2 construct: extracellular domain; Soluble extracellular domain with C-terminal His tag, used as analyte in Biacore; also called FcgRI; 1a; not shown: His tag attached to the C terminus
Protocol: The heterodimerized antibodies He Abs in which one of the H chains was introduced with an alteration were assayed for their binding activities to each activating FcγR and inhibitory FcγR according to the method described in Example 4. […] The activating FcγRs in FIGS. 26, 27, 28, and 29 are FcγRIa, FcγRIIa (R), FcγRIIa (H), and FcγRIIIa, respectively.
T2 sequence (P12314 16-292): as above
as §1

| Binder | He_1a/2b (Ia/IIb) [ratio] |
| --- | --- |
| B14 | 0.54 |
| B15 | 0.58 |
| B16 | 0.43 |
| B17 | 0.77 |
| B18 | 0.38 |
| B19 | 0.46 |
| B20 | 0.41 |
| B21 | 0.44 |
| B22 | 0.65 |
| B23 | 0.4 |
| B24 | 0.49 |
| B25 | 0.32 |
| B26 | 0.63 |
| B27 | 0.49 |
| B28 | 0.65 |
| B29 | 0.8 |
| B30 | 0.66 |
| B31 | 0.59 |
| B32 | 0.71 |
| B33 | 0.7 |
| B34 | 0.52 |
| B35 | 0.46 |

These binders were tested against T3, FcγRIIb (human, UniProt P31994 43-217) (assay: SPR (Biacore), antibody captured, FcγR as analyte; relative to GpH7-A5/GpH7-B3/GpL16-k0 = 100).
T3 construct: extracellular domain; Soluble extracellular domain with C-terminal His tag, used as analyte in Biacore; also called FcgRIIb; 2b; not shown: His tag attached to the C terminus
T3 sequence (looked up): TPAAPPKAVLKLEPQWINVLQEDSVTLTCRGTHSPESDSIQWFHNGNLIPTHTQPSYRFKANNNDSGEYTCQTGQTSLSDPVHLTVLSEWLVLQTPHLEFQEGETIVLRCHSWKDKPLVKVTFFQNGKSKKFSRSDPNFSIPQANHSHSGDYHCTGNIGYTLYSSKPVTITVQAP

| Binder | He/Con_2b |
| --- | --- |
| B14 | 148 % of control (=100) |
| B15 | 181 % of control (=100) |
| B16 | 221 % of control (=100) |
| B17 | 108 % of control (=100) |
| B18 | 223 % of control (=100) |
| B19 | 218 % of control (=100) |
| B20 | 193 % of control (=100) |
| B21 | 232 % of control (=100) |
| B22 | 150 % of control (=100) |
| B23 | 251 % of control (=100) |
| B24 | 206 % of control (=100) |
| B25 | 312 % of control (=100) |
| B26 | 147 % of control (=100) |
| B27 | 204 % of control (=100) |
| B28 | 149 % of control (=100) |
| B29 | 106 % of control (=100) |
| B30 | 114 % of control (=100) |
| B31 | 174 % of control (=100) |
| B32 | 140 % of control (=100) |
| B33 | 144 % of control (=100) |
| B34 | 152 % of control (=100) |
| B35 | 180 % of control (=100) |

The binders below were run against T2, FcγRIa in the same assay as above.

| Binder | He/Con_1a |
| --- | --- |
| B14 | 79.6 % of control (=100) |
| B15 | 105 % of control (=100) |
| B16 | 96 % of control (=100) |
| B17 | 82.8 % of control (=100) |
| B18 | 84 % of control (=100) |
| B19 | 101 % of control (=100) |
| B20 | 78.4 % of control (=100) |
| B21 | 102 % of control (=100) |
| B22 | 97.8 % of control (=100) |
| B23 | 99.7 % of control (=100) |
| B24 | 101 % of control (=100) |
| B25 | 101 % of control (=100) |
| B26 | 92.8 % of control (=100) |
| B27 | 101 % of control (=100) |
| B28 | 97.1 % of control (=100) |
| B29 | 84.8 % of control (=100) |
| B30 | 75.1 % of control (=100) |
| B31 | 102 % of control (=100) |
| B32 | 99.8 % of control (=100) |
| B33 | 101 % of control (=100) |
| B34 | 79.6 % of control (=100) |
| B35 | 82.5 % of control (=100) |
